Where “and” joins values, the source holds several entries; their conditions need not be identical. Equal values may be shown once.

In experiment [1] the test system is full thickness skin wounds. Put plainly: Acute Wound Model (Example 6). The experiment is classed as in vivo, C57BL/6 mice. On the procedure:
6-8 weeks old male C57BL/6 mice were supplied by Changzhou Cvens Experimental Animal Co. Ltd. Prior to any experiments being conducted, mice were housed under standardized conditions (at a constant temperature or 22±2° C., with alternating 12 hour periods of light and darkness), and were fed on a standard mouse diet with water, for about a week. […] The hair on the back was shaved by a baby hair shaver and depilated with cream. […] EMS skin biopsy punch (Electron Microscopy Sciences, P.O. […] Full thickness skin was removed and the depth reached the fascia. The wounds left open without suture. […] The model group was given same amount of normal saline. Recombinant Human Epidermal Growth Factor (rhEGF, Shanghai Haohai Biological Technology Co. Ltd, Shanghai, China) was purchased and prepared according to the manufacturer's instructions. Lyophilized rhEGF powder (100000 IU/vial) was dissolved in 20 mL of normal saline to make a solution with a 5000 IU/mL concentration. […] MedChemExpress, MCE China, Shanghai, China) was obtained in a powder form and was dissolved in ultrapure water to obtain solutions with concentrations as described in Table 22 (L, M and H indicate low, medium and high montelukast doses, respectively) Wounds were wrapped up with transparent dresser after drug administration. Photographs were taken for each wound every other day from Day 0. Photos were scanned into a computer, and wound areas calculated using ImageJ image analysis software (National Institutes of Health, […]). The unhealed wound area was expressed as a percentage of the original wound area: At/A0×100%, where A0 and At refer to the initial area at Day 0 and the wound area at the date of measurement (time t), respectively. […] Half of the tissue was preserved in 10% neutral buffered formalin (Nanchang […] Experimental Equipment Co., Ltd., Nanchang, […] Provence, China), and analyzed by histological embedding in paraffin wax, sectioning and staining. HE and Masson stained paraffin sections were analyzed under an optical microscope. Skin regeneration, fibroblastic proliferation, collagen regeneration scores and inflammation scores were estimated. The rest of the samples were stored at -80° C. for further analysis. […] The supernatant was collected, and the extracted protein was used for ELISA analysis using standard ELISA test kits and an ELISA reader (SH-1000 Hitachi, Japan). […] (Beijing, China).

Experiment [2] concerns full thickness skin wounds in diabetic mice. Nature of the experiment: Diabetic Wound Model (Example 7). As to conditions: Day 6; wound tissue; rhEGF 100 IU/each, Mon 100 μg/each, once daily topically. The format is in vivo, db/db mice (C57BL/KsJ-db/db). On the procedure: A similar experiment with essentially the same protocol to that described in Example 6 above was carried out on 8 to 12 week-old male db/db mice (C57BL/KsJ-db/db, with a body weight of 35-45 g/mouse; supplied by Changzhou Cvens Experimental Animal Co. Ltd.).
An EMS skin biopsy punch with a […] diameter was used to make wounds.
Different drugs were administrated topically at 20 μL/wound, once daily from Day 0 to Day 18. The model group was given same amount of normal saline.
Samples were taken on Day 6, Day 12 and Day 18 post-wound inflictions.
Histological specimens were analyzed and skin regeneration, fibroblast proliferation, collagen regeneration scores (Masson score) and inflammation scores were estimated as follows.
The HE and Masson stained slices were observed under an optical microscope and were scored (1, 2 or 3 points) according to the following criteria. […]
Fibroblast proliferation was scored as the following criteria:
Inflammation was scored as the following criteria:
Collagen deposition score criterion for the Masson stained sample were as follows. […] No clear blue staining was given 0 points; blue fiber appearing in a scattered pattern was scored as 1 points; if more blue fiber appeared, this was scored as 2 points, and a diffuse blue colour was given 3 points.

Setting [3] is: wound tissue, rhEGF 100 IU/wound.

B1: rhEGF: Recombinant Human Epidermal Growth Factor, 5000 IU/mL in normal saline (protein, UniProt P01133 23-1207, looked up)
Pro-epidermal growth factor: PQHWSCPEGTLAGNGNSTCVGPAPFLIFSHGNSIFRIDTEGTNYEQLVVDAGVSVIMDFHYNEKRIYWVDLERQLLQRVFLNGSRQERVCNIEKNVSGMAINWINEEVIWSNQQEGIITVTDMKGNNSHILLSALKYPANVAVDPVERFIFWSSEVAGSLYRADLDGVGVKALLETSEKITAVSLDVLDKRLFWIQYNREGSNSLICSCDYDGGSVHISKHPTQHNLFAMSLFGDRIFYSTWKMKTIWIANKHTGKDMVRINLHSSFVPLGELKVVHPLAQPKAEDDTWEPEQKLCKLRKGNCSSTVCGQDLQSHLCMCAEGYALSRDRKYCEDVNECAFWNHGCTLGCKNTPGSYYCTCPVGFVLLPDGKRCHQLVSCPRNVSECSHDCVLTSEGPLCFCPEGSVLERDGKTCSGCSSPDNGGCSQLCVPLSPVSWECDCFPGYDLQLDEKSCAASGPQPFLLFANSQDIRHMHFDGTDYGTLLSQQMGMVYALDHDPVENKIYFAHTALKWIERANMDGSQRERLIEEGVDVPEGLAVDWIGRRFYWTDRGKSLIGRSDLNGKRSKIITKENISQPRGIAVHPMAKRLFWTDTGINPRIESSSLQGLGRLVIASSDLIWPSGITIDFLTDKLYWCDAKQSVIEMANLDGSKRRRLTQNDVGHPFAVAVFEDYVWFSDWAMPSVMRVNKRTGKDRVRLQGSMLKPSSLVVVHPLAKPGADPCLYQNGGCEHICKKRLGTAWCSCREGFMKASDGKTCLALDGHQLLAGGEVDLKNQVTPLDILSKTRVSEDNITESQHMLVAEIMVSDQDDCAPVGCSMYARCISEGEDATCQCLKGFAGDGKLCSDIDECEMGVPVCPPASSKCINTEGGYVCRCSEGYQGDGIHCLDIDECQLGEHSCGENASCTNTEGGYTCMCAGRLSEPGLICPDSTPPPHLREDDHHYSVRNSDSECPLSHDGYCLHDGVCMYIEALDKYACNCVVGYIGERCQYRDLKWWELRHAGHGQQQKVIVVAVCVVVLVMLLLLSLWGAHYYRTQKLLSKNPKNPYEESSRDVRSRRPADTEDGMSSCPQPWFVVIKEHQDLKNGGQPVAGEDGQAADGSMQPTSWRQEPQLCGMGTEQGCWIPVSSDKGSCPQVMERSFHMPSYGTQTLEGGVEKPHSLLSANPLWQQRALDPPHQMELTQ
modifications: Pro-epidermal growth factor
notes: Recombinant Human Epidermal Growth Factor, 5000 IU/mL in normal saline
For B1, the “remaining wound area versus the initial wound” value in experiment [1] (Day 2, rhEGF 100 IU/wound once daily topically) came out at 85.73 ± 10.29%; in experiment [1] (Day 4, rhEGF 100 IU/wound), 68.15 ± 16.47%; in experiment [1] (Day 6, rhEGF 100 IU/wound) it was 30.85 ± 1.87%; in experiment [1] (Day 8, rhEGF 100 IU/wound) it was 16.93 ± 4.03%; in experiment [1] (Day 12, rhEGF 100 IU/wound) it was 5.02 ± 3.03%. Further, the “Hyp content (μg/mg tissue weight), single animals” value in experiment [1] (setting [3]) is 6.54 μg/mg tissue weight and 4.89 μg/mg tissue weight and 5.39 μg/mg tissue weight and 5.45 μg/mg tissue weight. Further, the “Hyp content, Mean (n = 4)” value in experiment [1] (setting [3]) is given as 5.57 μg/mg tissue weight. For the same molecule, in experiment [2], the “VEGF content, Mean” value is 4.55 pg/g.

Source of the values: US11672792B2, “Topical formulations comprising montelukast and combinations with mussel adhesive proteins” (ENLITISA (SHANGHAI) PHARMACEUTICAL CO., LTD, priority 2017, dated 2023).
